Here are results for 4 molecules from US20200405852A1 (BIOVERATIV USA, published 2020).

Residue numbers refer to the chain shown, from its start.

T1: activated human complement C1s (human, UniProt P09871 16-688)
T1 sequence: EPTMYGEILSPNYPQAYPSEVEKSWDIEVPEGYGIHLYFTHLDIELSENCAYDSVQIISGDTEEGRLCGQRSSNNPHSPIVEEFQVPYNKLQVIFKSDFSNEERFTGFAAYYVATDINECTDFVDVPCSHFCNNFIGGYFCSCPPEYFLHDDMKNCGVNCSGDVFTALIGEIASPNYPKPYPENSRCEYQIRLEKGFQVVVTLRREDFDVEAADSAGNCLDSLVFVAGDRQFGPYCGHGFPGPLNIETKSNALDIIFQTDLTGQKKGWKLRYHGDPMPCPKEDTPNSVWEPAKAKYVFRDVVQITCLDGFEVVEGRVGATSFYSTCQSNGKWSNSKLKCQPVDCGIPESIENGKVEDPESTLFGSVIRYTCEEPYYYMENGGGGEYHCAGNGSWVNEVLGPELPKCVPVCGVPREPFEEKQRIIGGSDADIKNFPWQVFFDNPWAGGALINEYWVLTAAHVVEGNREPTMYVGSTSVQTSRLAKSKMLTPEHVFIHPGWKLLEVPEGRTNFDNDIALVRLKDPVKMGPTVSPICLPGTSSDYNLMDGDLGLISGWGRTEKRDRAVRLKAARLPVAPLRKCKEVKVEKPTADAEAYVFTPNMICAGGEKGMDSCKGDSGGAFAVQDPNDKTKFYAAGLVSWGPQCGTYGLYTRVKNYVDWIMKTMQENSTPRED

B1: humanized TNT005 variant VH variant 2+Vk variant 1 (antibody, V domains shown)
VH: EVQLVQSGAEVKKPGASVKLSCTASGFNIKDDYIHWVKQAPGQGLEWIGRIDPADGHTKYAPKFQVKATITADTSTNTAYLELSSLRSEDTAVYYCARYGYGREVFDYWGQGTTVTVSS
VL: DIVLTQSPDSLAVSLGERATISCKASQSVDYDGDSYMNWYQQKTGQPPKILIYDASNLESGIPARFSGSGSGTDFTLTISSLEEEDFAIYYCQQSNEDPWTFGGGTKVEIK
notes: also called VH variant 2 + VL variant 1
B2: humanized TNT005 variant VH variant 2+Vk variant 5 (antibody, V domains shown)
VH: B1 VH
VL: B1 VL with T44P, I50L, E84P, I89V
notes: also called VH variant 2 + VL variant 5
B3: humanized TNT005 variant VH variant 2+Vk variant 2 (antibody, V domains shown)
VH: B1 VH
VL: B1 VL with T44P, E84P
notes: also called VH variant 2 + VL variant 2
B4: humanized TNT005 variant VH variant 5+Vk variant 1 (antibody, V domains shown)
VH: B1 VH with E1Q, L20V, T23A, K38R, A68V, N77S, L81M
VL: B1 VL
notes: also called VH variant 5 + VL variant 1

The target of the first experiment is T1, activated human complement C1s. Kind of experiment: cell-based or functional assay.
As to B1, the “IC50 of classical complement pathway inhibition (commercial CP activation assay)” value was 1.23 nM.

In the case of B2, the “IC50 of classical complement pathway inhibition (commercial CP activation assay)” value came to 1.27 nM.

With B3, the “IC50 of classical complement pathway inhibition (commercial CP activation assay)” value turned out to be 1.26 nM.

As for B4, the “IC50 of classical complement pathway inhibition (commercial CP activation assay)” value turned out to be 1.06 nM.

Another experiment shares this target. The experiment can be described thus: direct binding of antibody to activated C1s (aC1s); assay format not stated.
The EC50 is the concentration giving half of the maximal effect. Higher therefore signals a less potent agent. In the case of B1, the response was half-maximal at 0.137 nM (EC50).

B2 showed an EC50 of 0.124 nM.

B3 gave an EC50 of 0.134 nM.

Molecule B4 registered an EC50 of 0.113 nM.

Another experiment shares this target. The experiment can be described thus: kinetic characterization of binding to active human C1s; instrument not stated.
Usually Kd stands for the equilibrium constant for the complex coming apart. As a reminder, the kon is a measure of how fast the partners come together. The low end stands for slow association, the high end for fast association. With B1, the affinity, expressed as Kd, was 0.251 nM and the kon is 829000 M⁻¹ s⁻¹.

Regarding B2, binding was characterised by a dissociation constant (Kd) of 0.208 nM and the kon was found to be 798000 M⁻¹ s⁻¹.

For B3, the Kd is 0.206 nM and the kon came to 835000 M⁻¹ s⁻¹.

Molecule B4 had an equilibrium dissociation constant (Kd) of 0.457 nM and a kon of 1.03e+06 M⁻¹ s⁻¹.

For the next experiment the target is unchanged. The experiment can be described thus: competition binding to active C1s; competitor 50 pM biotinylated TNT005 (Biot-005). The method, then: All 15 combinations (VH variant 1+Vk variant 1; VH variant 1+Vk variant 2; VH variant 1+Vk variant 5; VH variant 2+Vk variant 1; VH variant 2+Vk variant 2; VH variant 2+Vk variant 5; VH variant 3+Vk variant 1; VH variant 3+Vk variant 2; VH variant 3+Vk variant 5; VH variant 4+Vk variant 1; VH variant 4+Vk variant 2; VH variant 4+Vk variant 5; VH variant 5+Vk variant 1; VH variant 5+Vk variant 2; VH variant 5+Vk variant 5) were produced. Each humanized variant was tested for the ability to compete with biotinylated TNT005 for binding to active C1s.
In general, IC50 refers to the concentration that inhibits the measured activity by half. As for B1, the IC50 was 0.144 nM.

In the case of B2, the half-inhibitory concentration (IC50) is 0.168 nM.

On to B3, for which the IC50 worked out at 0.158 nM.

Consider B4, for which the IC50 was found to be 0.0449 nM.

For the next experiment the target is unchanged. Kind of experiment: kinetic characterization of binding to active human C1s; instrument not stated; column head kdis.
The koff is the first-order rate constant of dissociation. Molecule B1 registered a koff of 0.000208 s⁻¹.

As to B2, the dissociation rate constant (koff) was determined as 0.000166 s⁻¹. This koff and that of the molecule before are within 1.5-fold of each other.

In turn, B3 registered a koff of 0.000172 s⁻¹. This koff and that of the molecule before are within 1.5-fold of each other.

B4 gave a koff of 0.000471 s⁻¹.
